Experiments:
[1] = YihX kinetic studies (malachite green phosphate assay); format: biochemical, Salmonella; details: Glc 1-P versus 6-P-F-Asp
From the text: Top panel reproduced from Monroy, et al., 2013.
The Km and kcat values are listed here with their respective curve-fit errors (see summary in Table 4).
Salmonella YihX was purified after overexpression in E. coli BL21 (DE3) pLysS cells. His6-YihX was purified under denaturing conditions using immobilized metal-affinity chromatography. Following purification, YihX was refolded by stepdown dialysis to remove the denaturant. […] YihX offers the basis for a simpler and more sensitive assay to diagnose classic galactosemia.

[2] = Duarte GalT variant; cited from earlier work
[3] = Duarte GalT-YidA coupled assay (malachite green); format: biochemical; details: recombinant Duarte GalT, substrate Gal-1-P
Method: The assay contained 25 mM 4-(2-hydroxyethyl)-1-piperazineethanesulfonic acid (HEPES) (pH 8.0), 3 mM MgCl2, 2 mM DTT, 1 mM UDP-glucose (Sigma-Aldrich), 3 mM YidA, and varying amounts of His6-tagged Duarte GalT: 0.25 mM GalT for ≤0.1-mM Gal-1P, and 0.1 mM GalT for ≥0.1-mM Gal-1P (Table 3). […] These 2-μL aliquots were added to a 384-well plate which were pre-dispensed to test wells 18 μL of water and 5 μL of malachite green reagent. […] These specific time courses (using four time points; Table 3) and the appropriate dilutions were performed to maintain product formation in the linear range. To determine the Km and kcat values, the initial velocity calculated at each substrate concentration was subject to the Michaelis-Menten curve-fitting option in Kaleidagraph (Synergy Software).

[4] = YidA substrate-specificity test, initial velocity for Glc-1-P versus Gal-1-P; format: biochemical, Salmonella; details: 3 mM Glc-1-P or 3 mM Gal-1-P, 3 mM MgCl2
From the text: FIGS. 1A-B show substrate-recognition bias of YidA for Glc-1-P over Gal-1P. […] The data represent mean±standard error determined from two independent trials. […] The Km and kcat values listed represent the mean±standard error from two independent trials.
Nearly homogeneous recombinant Salmonella YidA by overexpressing it in E. coli SixPack cells were obtained (Lipinszki et al. 2018) (FIG. 3A). N-terminal fusions with a small ubiquitin-like modifier (SUMO) domain were engineered to enhance solubility (Marblestone et al. 2006) and a His6 tag to facilitate affinity purification (FIG. 3A). To measure the phosphatase activity of YidA, malachite green, a cationic dye that forms with free orthophosphate and molybdate a green-colored complex (Abs620) was used; this assay can measure nanomolar concentrations of orthophosphate (FIG. 4). Since YidA is a Mg^2+-dependent phosphatase, its activity with Glc-1-P in the presence of 0-5 mM MgCl2 was first tested and determined that 3 mM MgCl2 was optimal (FIG. 5).

[5] = earlier qualitative observation (Kuznetsova et al. 2006); cited from earlier work

B1: YihX: recombinant Salmonella HAD-like sugar-phosphate phosphatase, overexpressed in E. coli BL21 (DE3) pLysS cells and refolded (protein, listed as Salmonella typhimurium)
chain: MLYIFDLGNVIVDIDFNRVLGVWSDLSRVPLASLKQKFTMGETFHQHERGEITDEAFAEAFCHEMALSLSYEQFAHGWQAVFVGLRPEVIAIMHKLREQGHRVVVLSNTNRLHTHFWPEEYPEVRAAADHIYLSQDLGMRKPEARIYQHVLQKEGFSAADAVFFDDNADNIEGANQLGITSILVKDKATIPDYFAKLLC
modifications: Description of sequence: YihX
For B1, the “substrate hydrolysis (qualitative)” value [1] was “hydrolyzes glucose 1-phosphate (Glc 1-P) but not 6-P-F-Asp”.

B2: Duarte GalT: recombinant His6-tagged Duarte variant of galactose-1-phosphate uridylyl transferase, clone from Addgene (GALTA-c001) (protein, UniProt P07902 1-379, looked up, variant N314D)
Galactose-1-phosphate …: MSRSGTDPQQRQQASEADAAAATFRANDHQHIRYNPLQDEWVLVSAHRMKRPWQGQVEPQLLKTVPRHDPLNPLCPGAIRANGEVNPQYDSTFLFDNDFPALQPDAPSPGPSDHPLFQAKSARGVCKVMCFHPWSDVTLPLMSVPEIRAVVDAWASVTEELGAQYPWVQIFENKGAMMGCSNPHPHCQVWASSFLPDIAQREERSQQAYKSQHGEPLLMEYSRQELLRKERLVLTSEHWLVLVPFWATWPYQTLLLPRRHVRRLPELTPAERDDLASIMKKLLTKYDNLFETSFPYSMGWHGAPTGSEAGANWDHWQLHAHYYPPLLRSATVRKFMVGYEMLAQAQRDLTPEQAAERLRALPEVHYHLGQKDRETATIA
In the case of B2, the “activity relative to wild-type GalT” value [2] is listed as roughly 25% and the “increase in kcat/Km, YidA-based assay versus PGM-G6PDH coupled assay” value [3] is listed as roughly 2.5 fold.

B3: YidA: recombinant Salmonella sugar-phosphate phosphatase of the HAD superfamily, overexpressed in E. coli SixPack cells; SUMO tag removed unless stated (protein, listed as Salmonella typhimurium)
chain: MAIKLIAIDMDGTLLLPDHTISPAVKNAIAAAREKGVNVVLTTGRPYAGVHSYLKELHMEQPGDYCITYNGALVQKAGDGSTVAQTALSYDDYRYLEKLSREVGSHFHALDRNTLYTANRDISYYTVHESYVATIPLVFCEAEKMDPNTQFLKVMMIDEPAVLDRAIARIPAEVKEKYTVLKSAPYFLEILDKRVNKGTGVKSLVEALGIKPEEVMAIGDQENDIAMIEYAGMGVAMDNAIPSVKEVANFVTKSNLEDGVAWAIEKFVLNPDHSSGHFPAR
modifications: Description of sequence: YidA
notes: recombinant Salmonella sugar-phosphate phosphatase of the HAD superfamily, overexpressed in E. coli SixPack cells; SUMO tag removed unless stated
With B3 the “preference for Glc-1-P over Gal-1-P (initial velocity)” value [4] was no less than 40 fold.

B4: E. coli YidA: E. coli YidA phosphatase documented in a previous study (Kuznetsova et al. 2006) (protein, UniProt P0A8Y5 1-270, looked up)
Sugar phosphatase YidA: MAIKLIAIDMDGTLLLPDHTISPAVKNAIAAARARGVNVVLTTGRPYAGVHNYLKELHMEQPGDYCITYNGALVQKAADGSTVAQTALSYDDYRFLEKLSREVGSHFHALDRTTLYTANRDISYYTVHESFVATIPLVFCEAEKMDPNTQFLKVMMIDEPAILDQAIARIPQEVKEKYTVLKSAPYFLEILDKRVNKGTGVKSLADVLGIKPEEIMAIGDQENDIAMIEYAGVGVAMDNAIPSVKEVANFVTKSNLEDGVAFAIEKYVLN
In the case of B4, the “dephosphorylation of Gal-1-P compared to Glc-1-P (qualitative)” value [5] is listed as “negligible dephosphorylation of Gal-1-P compared to Glc-1-P”.
